Measured values from publication PMC9352680, “A comprehensive thermodynamic model for RNA binding by the Saccharomyces cerevisiae Pumilio protein PUF4”.

T1: PUF4 RNA-binding domain (Saccharomyces cerevisiae, UniProt P25339 537-888)
T1 sequence: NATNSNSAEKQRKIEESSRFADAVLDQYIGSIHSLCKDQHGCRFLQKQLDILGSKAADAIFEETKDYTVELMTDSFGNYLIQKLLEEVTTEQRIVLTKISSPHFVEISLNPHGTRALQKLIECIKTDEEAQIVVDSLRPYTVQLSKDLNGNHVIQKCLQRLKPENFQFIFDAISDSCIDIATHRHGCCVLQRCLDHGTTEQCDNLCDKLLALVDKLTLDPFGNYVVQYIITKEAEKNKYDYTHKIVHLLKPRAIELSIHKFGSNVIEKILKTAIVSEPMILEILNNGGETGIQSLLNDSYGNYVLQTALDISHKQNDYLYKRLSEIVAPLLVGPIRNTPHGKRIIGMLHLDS


Biological target: T1, PUF4 RNA-binding domain
Test: Mg; RNA-MaP; 20 mM Na-HEPES pH 7.4, 30 mM KOAc, 0.75 mM MgCl2, 0.1% Tween-20, 5% glycerol, 0.1 mg/mL BSA, 2 mM DTT; 25 C; 0.0125-409.6 nM protein
Conditions: tags: N-His6-TEV cleaved; C-SNAP kept, Cy3B-labelled; label: tethered on chip by stalled RNA polymerase

Row | Binder | Kd [nM]
1 | Ie_S4_P5E.1_K5.1_C5.1_H5.1_[+1CCCT]_A5.1_F5.1_T5.1 (ssRNA) RNA: UUUGACAACUGAUCGUUCUUUCUUCCCUGUAUUAUUAUUCUUUCUCGAUCAGUUGUCUUU | 1.21
2 | Ie_S4_P5E.1_K5.1_C5.1_H5.1_[+2TTCC]_A5.1_F5.1_T5.1 (ssRNA) RNA: UUUGACAACUGAUCGUUCUUUCUUGUUCCUAUUAUUAUUCUUUCUCGAUCAGUUGUCUUU | 26.4
3 | Ie_S4_P5E.1_K5.1_C5.1_H5.1_[+2CCTC]_A5.1_F5.1_T5.1 (ssRNA) RNA: UUUGACAACUGAUCGUUCUUUCUUGCCUCUAUUAUUAUUCUUUCUCGAUCAGUUGUCUUU | 863
4 | Ie_S4_P4E.1_K4.1_C4.1_H4.1_A4.1_[+6CCCT]_F4.1_T4.1 (ssRNA) RNA: UUUGACAACUGAUCGUUCUUUCUUGUAUACCCUUUAUUCUUUCUCGAUCAGUUGUCUUU | 22.2
5 | Ie_S4_P4E.1_K4.1_C4.1_H4.1_A4.1_[+7TCTC]_F4.1_T4.1 (ssRNA) RNA: UUUGACAACUGAUCGUUCUUUCUUGUAUAUUCUCUAUUCUUUCUCGAUCAGUUGUCUUU | 6.61
6 | Ie_S4_P5E.1_K5.1_C5.1_H5.1_[+3CCC]_A5.1_F5.1_T5.1 (ssRNA) RNA: UUUGACAACUGAUCGUUCUUUCUUGUCCCAUUAUUAUUCUUUCUCGAUCAGUUGUCUUU | 27.8
7 | Ie_S4_P5E.1_K5.1_C5.1_H5.1_[+2TCT]_A5.1_F5.1_T5.1 (ssRNA) RNA: UUUGACAACUGAUCGUUCUUUCUUGUCUUAUUAUUAUUCUUUCUCGAUCAGUUGUCUUU | 15.3
8 | Ie_S4_P4E.1_K4.1_C4.1_H4.1_A4.1_F4.1_[+9TCTC]_T4.1 (ssRNA) RNA: UUUGACAACUGAUCGUUCUUUCUUGUAUAUUAUCUCUUCUUUCUCGAUCAGUUGUCUUU | 0.36
9 | Ie_S4_P5E.1_K5.1_C5.1_H5.1_[+2TCC]_A5.1_F5.1_T5.1 (ssRNA) RNA: UUUGACAACUGAUCGUUCUUUCUUGUCCUAUUAUUAUUCUUUCUCGAUCAGUUGUCUUU | 18.4
10 | Ie_S4_P5E.1_K5.1_C5.1_H5.1_[+3TTT]_A5.1_F5.1_T5.1 (ssRNA) RNA: UUUGACAACUGAUCGUUCUUUCUUGUUUUAUUAUUAUUCUUUCUCGAUCAGUUGUCUUU | 15.6
11 | Ie_S4_P4E.1_K4.1_C4.1_H4.1_A4.1_F4.1_[+8TCTC]_T4.1 (ssRNA) RNA: UUUGACAACUGAUCGUUCUUUCUUGUAUAUUUCUCAUUCUUUCUCGAUCAGUUGUCUUU | 5.61
12 | Ie_S4_P5E.1_K5.1_C5.1_H5.1_[+3TCT]_A5.1_F5.1_T5.1 (ssRNA) RNA: UUUGACAACUGAUCGUUCUUUCUUGUUCUAUUAUUAUUCUUUCUCGAUCAGUUGUCUUU | 8.87
13 | Ie_S4_P4E.1_K4.1_C4.1_H4.1_A4.1_F4.1_[+9CTCT]_T4.1 (ssRNA) RNA: UUUGACAACUGAUCGUUCUUUCUUGUAUAUUACUCUUUCUUUCUCGAUCAGUUGUCUUU | 0.777
14 | Ie_S4_P5E.1_K5.1_C5.1_H5.1_[+3TCC]_A5.1_F5.1_T5.1 (ssRNA) RNA: UUUGACAACUGAUCGUUCUUUCUUGUUCCAUUAUUAUUCUUUCUCGAUCAGUUGUCUUU | 9.83
15 | Ie_S4_P4E.1_K4.1_C4.1_H4.1_A4.1_F4.1_[+8CT]_T4.1 (ssRNA) RNA: UUUGACAACUGAUCGUUCUUUCUUGUAUAUUCUAUUCUUUCUCGAUCAGUUGUCUUU | 3.92
16 | Ie_S4_P4E.1_K4.1_C4.1_H4.1_A4.1_F4.1_[+9TC]_T4.1 (ssRNA) RNA: UUUGACAACUGAUCGUUCUUUCUUGUAUAUUAUCUUCUUUCUCGAUCAGUUGUCUUU | 0.647
17 | Ie_S4_P4E.1_K4.1_C4.1_H4.1_A4.1_F4.1_[+9CC]_T4.1 (ssRNA) RNA: UUUGACAACUGAUCGUUCUUUCUUGUAUAUUACCUUCUUUCUCGAUCAGUUGUCUUU | 0.607
18 | Ie_S4_P5E.1_K5.1_C5.1_H5.1_[+3C]_A5.1_F5.1_T5.1 (ssRNA) RNA: UUUGACAACUGAUCGUUCUUUCUUGUCAUUAUUAUUCUUUCUCGAUCAGUUGUCUUU | 34.1
19 | Ie_S4_P5E.1_K5.1_C5.1_H5.1_[+3T]_A5.1_F5.1_T5.1 (ssRNA) RNA: UUUGACAACUGAUCGUUCUUUCUUGUUAUUAUUAUUCUUUCUCGAUCAGUUGUCUUU | 41.6
20 | Ie_S4_P4E.1_K4.1_C4.1_H4.1_A4.1_[+7C]_F4.1_T4.1 (ssRNA) RNA: UUUGACAACUGAUCGUUCUUUCUUGUAUAUCUAUUCUUUCUCGAUCAGUUGUCUUU | 1.92
21 | Ie_S4_P4E.1_K4.1_C4.1_H4.1_A4.1_F4.1_[+8C]_T4.1 (ssRNA) RNA: UUUGACAACUGAUCGUUCUUUCUUGUAUAUUCAUUCUUUCUCGAUCAGUUGUCUUU | 13.1
22 | Ie_S4_P4E.1_K4.1_C4.1_H4.1_A4.1_F4.1_[+9C]_T4.1 (ssRNA) RNA: UUUGACAACUGAUCGUUCUUUCUUGUAUAUUACUUCUUUCUCGAUCAGUUGUCUUU | 1.51

Row | Binder | Kd [nM]
23 | Ie_S4_P4E.1_K4.1_C4.1_H4.1_A4.1_F4.1_[+8CCTCT]_T4.1 (ssRNA) RNA: UUUGACAACUGAUCGUUCUUUCUUGUAUAUUCCUCUAUUCUUUCUCGAUCAGUUGUCUUU | 6.66
24 | Ie_S4_P4E.1_K4.1_C4.1_H4.1_A4.1_F4.1_[+9CCCTT]_T4.1 (ssRNA) RNA: UUUGACAACUGAUCGUUCUUUCUUGUAUAUUACCCUUUUCUUUCUCGAUCAGUUGUCUUU | 0.565
25 | Ie_S4_P4E.1_K4.1_C4.1_H4.1_A4.1_F4.1_[+9TCTCT]_T4.1 (ssRNA) RNA: UUUGACAACUGAUCGUUCUUUCUUGUAUAUUAUCUCUUUCUUUCUCGAUCAGUUGUCUUU | 0.343
26 | Ie_S4_P5E.1_K5.1_C5.1_H5.1_[+1CCT]_A5.1_F5.1_T5.1 (ssRNA) RNA: UUUGACAACUGAUCGUUCUUUCUUCCUGUAUUAUUAUUCUUUCUCGAUCAGUUGUCUUU | 1.07
27 | Ie_S4_P5E.1_K5.1_C5.1_H5.1_[+1CTT]_A5.1_F5.1_T5.1 (ssRNA) RNA: UUUGACAACUGAUCGUUCUUUCUUCUUGUAUUAUUAUUCUUUCUCGAUCAGUUGUCUUU | 1.38
28 | Ie_S4_P5E.1_K5.1_C5.1_H5.1_[+1CTC]_A5.1_F5.1_T5.1 (ssRNA) RNA: UUUGACAACUGAUCGUUCUUUCUUCUCGUAUUAUUAUUCUUUCUCGAUCAGUUGUCUUU | 216
29 | Ie_S4_P4E.1_K4.1_C4.1_H4.1_A4.1_[+7CTC]_F4.1_T4.1 (ssRNA) RNA: UUUGACAACUGAUCGUUCUUUCUUGUAUAUCUCUAUUCUUUCUCGAUCAGUUGUCUUU | 10.3
30 | Ie_S4_P4E.1_K4.1_C4.1_H4.1_A4.1_[+7TTC]_F4.1_T4.1 (ssRNA) RNA: UUUGACAACUGAUCGUUCUUUCUUGUAUAUUUCUAUUCUUUCUCGAUCAGUUGUCUUU | 4.42
31 | Ie_S4_P5E.1_K5.1_C5.1_H5.1_[+1TT]_A5.1_F5.1_T5.1 (ssRNA) RNA: UUUGACAACUGAUCGUUCUUUCUUUUGUAUUAUUAUUCUUUCUCGAUCAGUUGUCUUU | 1.52
32 | Ie_S4_P4E.1_K4.1_C4.1_H4.1_A4.1_F4.1_[+9TTC]_T4.1 (ssRNA) RNA: UUUGACAACUGAUCGUUCUUUCUUGUAUAUUAUUCUUCUUUCUCGAUCAGUUGUCUUU | 0.42
33 | Ie_S4_P4E.1_K4.1_C4.1_H4.1_A4.1_F4.1_[+8TCC]_T4.1 (ssRNA) RNA: UUUGACAACUGAUCGUUCUUUCUUGUAUAUUUCCAUUCUUUCUCGAUCAGUUGUCUUU | 4.35
34 | Ie_S4_P5E.1_K5.1_C5.1_H5.1_[+1TC]_A5.1_F5.1_T5.1 (ssRNA) RNA: UUUGACAACUGAUCGUUCUUUCUUUCGUAUUAUUAUUCUUUCUCGAUCAGUUGUCUUU | 288
35 | Ie_S4_P5E.1_K5.1_C5.1_H5.1_[+3TT]_A5.1_F5.1_T5.1 (ssRNA) RNA: UUUGACAACUGAUCGUUCUUUCUUGUUUAUUAUUAUUCUUUCUCGAUCAGUUGUCUUU | 8.89
36 | Ie_S4_P4E.1_K4.1_C4.1_H4.1_A4.1_F4.1_[+9CTT]_T4.1 (ssRNA) RNA: UUUGACAACUGAUCGUUCUUUCUUGUAUAUUACUUUUCUUUCUCGAUCAGUUGUCUUU | 1.08
37 | Ie_S4_P5E.1_K5.1_C5.1_H5.1_[+3CT]_A5.1_F5.1_T5.1 (ssRNA) RNA: UUUGACAACUGAUCGUUCUUUCUUGUCUAUUAUUAUUCUUUCUCGAUCAGUUGUCUUU | 10.9
38 | Ie_S4_P5E.1_K5.1_C5.1_H5.1_[+3TC]_A5.1_F5.1_T5.1 (ssRNA) RNA: UUUGACAACUGAUCGUUCUUUCUUGUUCAUUAUUAUUCUUUCUCGAUCAGUUGUCUUU | 2.68
39 | Ie_S4_P4E.1_K4.1_C4.1_H4.1_A4.1_F4.1_[+9CTC]_T4.1 (ssRNA) RNA: UUUGACAACUGAUCGUUCUUUCUUGUAUAUUACUCUUCUUUCUCGAUCAGUUGUCUUU | 1.39
40 | Ib_S2_P3E.1_K3.1_C3.1_H3.1_[A4G]_A3.1_[T5C]_F3.1_T3.1 (ssRNA) RNA: UUUGAUUAAUAUGAUAUCGUUCUUUCUUGUGCAUAUUCUUUCUCGAUAUCAUAUUAAUCUUU | 24.6
41 | Ib_S2_P3E.1_K3.1_C3.1_H3.1_[A4C]_A3.1_[T5A]_F3.1_T3.1 (ssRNA) RNA: UUUGAUUAAUAUGAUAUCGUUCUUUCUUGUCAAUAUUCUUUCUCGAUAUCAUAUUAAUCUUU | 1360
42 | Ib_S2_P3E.1_K3.1_C3.1_H3.1_[A4C]_A3.1_[T5C]_F3.1_T3.1 (ssRNA) RNA: UUUGAUUAAUAUGAUAUCGUUCUUUCUUGUCCAUAUUCUUUCUCGAUAUCAUAUUAAUCUUU | 581
43 | Ib_S2_P3E.1_K3.1_C3.1_H3.1_[A4T]_A3.1_[T5A]_F3.1_T3.1 (ssRNA) RNA: UUUGAUUAAUAUGAUAUCGUUCUUUCUUGUUAAUAUUCUUUCUCGAUAUCAUAUUAAUCUUU | 670
44 | Ic_S2_P3E.1_K3.1_C3.1_H3.1_A3.1_[A6G]_F3.1_T3.1 (ssRNA) RNA: UUUGAUUAAUAUGAUAUCGUUCUUUCUUGUAUGUAUUCUUUCUCGAUAUCAUAUUAAUCUUU | 26.3
